Values quoted from earlier work in article PMC7739374.

Target: Sos (Homo sapiens) (UniProt Q07889)

For Ras (from UniProt P01112), the Kd is listed as 28 µM.
